Laboratory results taken from PMC5719442.

Columns and labels:
[1] = biological target: AnPrx6, Prx6 (1-Cys peroxiredoxin) from Anabaena sp. strain PCC 7120 (Anabaena sp. PCC 7120); experiment: SAXS; 1.6 mg/ml and 4.8 mg/ml protein; mass from Hen Egg White Lysozyme standard and from Porod volume
[2] = biological target: AnPrx6, Prx6 (1-Cys peroxiredoxin) from Anabaena sp. strain PCC 7120 (Anabaena sp. PCC 7120); experiment: SEC; analytical SEC at 0.1, 1 and 10 mg/ml protein, without or with 20 mM H2O2; BioRad Gel Filtration Standard

stoichiometry N [1]: 2
stoichiometry N [2]: 2
Substance: AnPrx6, Prx6 (1-Cys peroxiredoxin) from Anabaena sp. strain PCC 7120 (enzyme)
